Measured values published in patent publication US20070099822A1, “Regulation of tissue mineralization and phosphate metabolism by asarm peptides” (priority 2003, published 2007).
“Also recorded” adds a separate entry of the source.

Tests used:
[1] = target: anti-ASARM-peptide polyclonal; assay: Competitive ELISA, biotinylated against non-biotinylated ASARM-peptide; assay type: binding, Rabbit; conditions: 0.5 ng/mL biotinylated ASARM-peptide
Excerpt: MEPE ASARM-peptide (phosphorylated and non-phosphorylated) & polyclonal antibodies. The carboxy terminal region of MEPE containing residues 507-525 were synthesized using routine techniques by multiple peptide cloning systems (Multiple Peptide Systems, San Diego, Calif.). For ELISA studies, both phosphorylated and non-phosphorylated peptides were synthesized. The phosphorylated-form of the peptide (NH2—RDDSSESSDSG(Sp)S(Sp)E(Sp)DGD-COOH; SEQ ID NO. 14) was biotinylated using a Pierce EZ-Link Sulfo-NHS-LC-Biotinylation Kit (Pierce & Co, Rockford, Ill.) and the peptide de-salted using an Amersham Biosciences PD-10 Desalting column (Amersham Biosciences, Piscataway, N.J.). […] Rabbit polyclonal antibodies raised against ASARM-peptide NH2-[…]-COOH (SEQ ID NO. 5) were used in these studies and have been previously described (Rowe, et al., Bone 34:303-319, 2004). Pre-immune sera from the same rabbits were used as negative controls.
ELISA Assay. A new enzyme-linked-immunosorbent-assay (ELISA) was designed to specifically quantitate ASARM-peptide(s) in sera from humans and mice. […]

CHO cell tumors = assay: Example IV: CHO cell tumors expressing MEPE in athymic nude mice; assay type: in vivo
Method: Six groups of athymic nude mice were injected with the one of the following: normal saline, CHO cells, CHO cells containing an empty vector, CHO cells expressing MEPE (CHO-MEPE), CHO cells expressing PHEX (CHO-PHEX), and CHO cells expressing PHEX and MEPE (CHO-PHEX-MEPE). Tumor size was assessed based on combined tumor weight at nine different time points.

## H-CFSSRRRDDSSESSDSGSSSESDGD-OH [ASARM-peptide]
[1]
  KD of quenching in competitive ELISA: 7.5 ng/mL
  Qmax (quench maximum): 98.7%

B1: Hu-MEPE: purified insect expressed full-length recombinant human MEPE (Matrix Extracellular Phosphoglycoprotein) (protein)
chain: PTFQPQTEKTKQSCVEEQRQEEKNKDNIGFHHLGKRINQELSSKENIVQERKKDLSLSEASENKGSSKSQNYFTNRQRLNKEYSISNKENTHNGLRMSIYPKSTGNKGFEDGDDAISKLHDQEEYGAALIRNNMQHIMGPVTAIKLLGEENKENTPRNVLNIIPASMNYAKAHSKDKKKPQRDSQAQKSPVKSKSTHRIQHNIDYLKHLSKVKKIPSDFEGSGYTDLQERGDNDISPFSGDGQPFKDIPGKGEATGPDLEGKDIQTGFAGPSEAESTHLDTKKPGYNEIPEREENGGNTIGTRDETAKEADAVDVSLVEGSNDIMGSTNFKELPGREGNRVDAGSQNAHQGKVEFHYPPAPSKEKRKEGSSDAAESTNYNEIPKNGKGSTRKGVDHSNRNQATLNEKQRFPSKGKSQGLPIPSRGLDNEIKNEMDSFNGPSHENIITHGRKYHYVPHRQNNSTRNKGMPQGKGSWGRQPHSNRRFSSRRRDDSSESSDSGSSSESDGD
CHO cell tumors; CHO cells expressing MEPE vs CHO cells with empty vector, nude mice
  tumor size (combined tumor weight): significantly reduced; also recorded: dramatically reduced size
CHO cell tumors; CHO-MEPE and CHO-PHEX-MEPE groups vs groups not expressing MEPE
  1,25-vitamin D3 serum levels: decrease in serum levels
CHO cell tumors; after thirteen days, CHO-MEPE and CHO-PHEX-MEPE groups
  serum phosphate: hypophosphatemia; also recorded: decrease in serum phosphate
